One block for each binder: values may come before it.
Columns and labels:
[1] = biological target: M90-modified L NTAA target peptide; test: affinity comparison between P1 residues (method not specified; BLI / encoding assay)
[2] = biological target: M48-modified L NTAA target peptides (M48-L-P2-peptide); test: Gini coefficient of P2 tolerance from multiplex encoding heatmap
[3] = biological target: M48-modified L NTAA target peptides (M48-L-P2-peptide); test: Gini coefficient of P1 selectivity from multiplex encoding heatmap
[4] = biological target: M90-modified A NTAA target peptide; test: affinity comparison between P1 residues (method not specified; BLI / encoding assay)
[5] = biological target: M12-modified F NTAA target peptides (M12-F-P2-peptide); test: multiplex encoding assay on 288 immobilized peptides (FIG. 9); holds for at least 14 P2 residues
[6] = biological target: M44-modified Y NTAA target peptides (M44-Y-P2-peptide); test: Gini coefficient of P2 tolerance from multiplex encoding heatmap
[7] = biological target: M44-modified Y NTAA target peptides (M44-Y-P2-peptide); test: Gini coefficient of P1 selectivity from multiplex encoding heatmap
[8] = biological target: M12-modified L NTAA target peptides (M12-L-P2-peptide); test: multiplex encoding assay on 288 immobilized peptides (FIG. 10); holds for at least 11 P2 residues
[9] = biological target: M90-modified M NTAA target peptide; test: affinity comparison between P1 residues (method not specified; BLI / encoding assay)
[10] = biological target: M90-modified W NTAA target peptide; test: as above
[11] = biological target: M90-modified H NTAA target peptide; test: as above
[12] = biological target: M2014-modified Y NTAA target peptides (M2014-Y-P2-peptide); test: Gini coefficient of P2 tolerance from multiplex encoding heatmap
[13] = biological target: M2014-modified Y NTAA target peptides (M2014-Y-P2-peptide); test: Gini coefficient of P1 selectivity from multiplex encoding heatmap
[14] = biological target: M90-modified F NTAA target peptide; test: affinity comparison between P1 residues (method not specified; BLI / encoding assay)

- encoding efficiency (fraction of recording tags encoded) [5]: > 0.15
B4: engineered M12-F binder (SEQ ID NO: 50) (designed binder, not shown: small tags and cut ends; large carriers)
chain: GPVPTPPDNIQVQENFNISRIYGKWYPLAMGSTSPYLKKSMDIMTPSYLVLGEGATEAEISWTETFWRKGVCEEGSGALEKTDTDGKFLYHKSKWNITEERYVVHTNYDEYAIVLVKKFSRHHGPTIEAVLMGRAPQLRETLLQDFRVVAQGVGIPEDSIFTMADRGECVPGEQ

- encoding efficiency (fraction of recording tags encoded) [8]: > 0.15
B6: engineered M12-L binder (SEQ ID NO: 49) (designed binder, not shown: small tags and cut ends; large carriers)
chain: QVSVQPNFQQDKFLGRWFVAGIASNSSWSREKIAALSFAKGVVAPATDGGLNYTETVLRKNQCETQTVLLQPAGSLGSYSARSPHQGSTRSFSVVETDYDQYALLYAQGSKGPGEDDRVAGLWSRTQTPRAELKEKFTAFSKAQGFTEDTIVFLPQTDKCMTEQ

- fold affinity over an otherwise identical peptide with a different P1 [9]: > 2 fold
B7: SEQ ID NO 56 (designed binder, not shown: small tags and cut ends; large carriers)
chain: QIPLCANLVPVPITNATLDRITGKWFLIASAIRNEEYNKSVQAVQSTAFYWTPNKTEDTIFARYYQTRQNQCFYNSSYLNVQRENGTVSWYAGGREFVSHLLFLRYTKTLMWGGYLDDEKNWGLEFYADKPETTKEQLGEFYEALDCLRIPRSDVMYTDWKKDKCEPLEKQHEKERKQEEGES

- fold affinity over an otherwise identical peptide with a different P1 [11]: 2 fold
B9: SEQ ID NO 55 (designed binder, not shown: small tags and cut ends; large carriers)
chain: QIPLCANLVPVPITNATLDRITGKWFRIASAFRNEEYKKSVQEVQTTSFYFTPNKTEDTIFARFYQTRQNQCFYNSSYLNVQRENGTVSLYSGGREAVLHLLFLRDTKTLMLGVYLDDEKNWGLSFYADKPETTKEQLGEFYEALDCLRIPRSDVMYTDWKKDKCEPLEKQHEKERKQEEGES

Continued, binder first:

B1: SEQ ID NO 53 (designed binder, not shown: small tags and cut ends; large carriers)
chain: QIPLCANLVPVPITNATLDRITGKWFLIASASRNEEYNKSVQGSQNTAFYFTPNKTEDTIFLRRYQTRQNQCFYNSSYLNVQRENGTVSSYFGGRENVIHLLFLRDTKTLMLGRYLDDEKNWGLEFYADKPETTKEQLGEFYEALDCLRIPRSDVMYTDWKKDKCEPLEKQHEKERKQEEGES
- fold affinity over an otherwise identical peptide with a different P1 [1]: > 2 fold

B2: SEQ ID NO 27 (designed binder, not shown: small tags and cut ends; large carriers)
chain: QVSVQPNFQQDKFLGRWFIAGQASNSSWQREKCAALSRAKVVVAPATDGGLNLTMTLLRKNQCETRTTLLQPAGSLGSYSYRSPHLGSTVSWSVVETDYDQYALMYVQGSKGPGEDQRFAILWSRTQTPRAELKEKFTAFSKAQGFTEDTIVFLPQTDKCMTEQ
- P2 score [2]: 0.312
- P1 score [3]: 0.0571

B3: SEQ ID NO 54 (designed binder, not shown: small tags and cut ends; large carriers)
chain: QIPLCANLVPVPITNATLDRITGKWFVIASATRNEEYNKSVQRQQGTVFYYTPNKTEDTIFVRRYQTRQNQCFYNSSYLNVQRENGTVSFYEGGRELVFHLLFLRDTKTLMWGLYLDDEKNWGLEFFADKPETTKEQLGEFYEALDCLRIPRSDVMYTDWKKDKCEPLEKQHEKERKQEEGES
- fold affinity over an otherwise identical peptide with a different P1 [4]: > 2 fold

B5: SEQ ID NO 45 (designed binder, not shown: small tags and cut ends; large carriers)
chain: TVPDRSEIAGKWYVVALASNTEFLLREKDSLKSAMARISFLGEDELKVSYARPLPNGCLKLEATMKKTSDDGEVYLSRSAKLKVEVLDTDYKSYAVIYATPVKDGRTRHYMALYSRSPEVSPAATAIFRKLAGERNYTDEMVAMLPRQEECTVDEV
- P2 score [6]: 0.426
- P1 score [7]: 0.301

B8: SEQ ID NO 52 (designed binder, not shown: small tags and cut ends; large carriers)
chain: QIPLCANLVPVPITNATLDRITGKWFIIASASRNEEYNKSVQQAQSTAFYITPNKTEDTIFLRRYQTRQNQCFYNSSYLNVQRENGTVSYYRGGRERVSHLLFLRDTKTLMIGSYLDDEKNWGLVFGADKPETTKEQLGEFYEALDCLRIPRSDVMYTDWKKDKCEPLEKQHEKERKQEEGES
- fold affinity over an otherwise identical peptide with a different P1 [10]: > 2 fold

B10: SEQ ID NO 48 (designed binder, not shown: small tags and cut ends; large carriers)
chain: QDSTQNLIPAPSLLTVPLQPDFRSDQFRGRWYVVGLAGNAVQKKTEGSFTMLSLIYELQENNSYNVTAIFVRDQDQGCRYVIDTLVPSSRAGQFTPGSMGRFPQVQSYNVQVATTDYNQFAMVFVRVTSENKQYFEITLLGRTKELSPELKERFTRFAKSLGLKDDNIIFSVPTDQCIDNSAWSHPQFEK
- P2 score [12]: 0.255
- P1 score [13]: 0.238

B11: SEQ ID NO 51 (designed binder, not shown: small tags and cut ends; large carriers)
chain: QIPLCANLVPVPITNATLDRITGKWFHIASAIRNEEYNKSVQRQQSTHFYITPNKTEDTIFTRVYQTRQNQCFYNSSYLNVQRENGTVSLYSGGREVVGHLLFLRDTKTLMWGTYLDDEKNWGLEFWADKPETTKEQLGEFYEALDCLRIPRSDVMYTDWKKDKCEPLEKQHEKERKQEEGES
- fold affinity over an otherwise identical peptide with a different P1 [14]: > 2 fold

Source: US20230220589A1
